Laboratory results reported in US20180187211A1.

Target: PDL1 on the surface of TC-1 cells (mouse (TC-1 murine tumor cell line)) (UniProt Q9EP73)
Experiment: flow cytometry, staining of TC-1 tumor cells (background control)

Sequence of UniProt Q9EP73 (Q9EP73 19-290): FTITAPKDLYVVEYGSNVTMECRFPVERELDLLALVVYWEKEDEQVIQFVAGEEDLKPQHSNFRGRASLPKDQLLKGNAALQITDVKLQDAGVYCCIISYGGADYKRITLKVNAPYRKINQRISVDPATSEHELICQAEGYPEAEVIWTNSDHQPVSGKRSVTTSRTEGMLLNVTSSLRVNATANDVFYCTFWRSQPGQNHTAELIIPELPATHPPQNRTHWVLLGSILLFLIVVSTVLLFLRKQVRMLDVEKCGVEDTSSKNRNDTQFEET

- median fluorescent intensity (MFI): 184 MFI
Substance: PE-conjugated isotype control antibody
